B1: Methanocaldococcus jannaschii (Mja) POP5 (natural protein)
chain: MIEMLKTLPPTLREKKRYIAFKILYDEELKEGEVVNLIRKAVLEYYGSWGTSKANPWLVYYDFPYGILRCQRDNVDYVKASLILIREFKEKPVNIICLGVSGTIRKAKIKFLGIKKPKRWFVIRRERLKAKKQK
B2: Mja POP5·RPP30 binary complex (complex, Methanocaldococcus jannaschii)
chain 1: B1 chain
chain 2: MRIDINRIEKEEDIKLLKELKWNGFVFYQYDDEFSKDRYEEVKAIAESYKLKVYSGVKIKTESSKQLRDKVKKFRNKCHIILIEGGVLKINRAAVELHDVDILSTPELGRKDSGIDHVLARLASNHRVAIELNFKTLLNKDGYERARTLLFFRNNLKLAKKFDVPVVISTDAENKYQIKNPYDLRAFLNTLVEPLYAKKIMETAYKICDFRDYLMRDNVVRYGVEIIKEEKE
B3: Methanocaldococcus jannaschii (Mja) RPP29 (natural protein)
chain: MITPHNILRHELIGLKVEIVEAKNKAMIGIKGKVVDETRNTLVIEKEDGREVVIPKDIAVFLFQLKGCKVKVDGRLLIGRPEERLKKKIKILYPY
B4: Mja RPP21·RPP29 binary complex (complex, Methanocaldococcus jannaschii)
chain 1: MKKFLEKKLKKIAYERIDILMSLAEEEAKKGNWDRAKRYVYLARRIAMKMRIRFPKKWKRRICKKCGTFLLYGRNARVRIKSKRYPHVVITCLECGAIYRIPMIREKKEKRRKKLEERLKAKSNSQTS
chain 2: B3 chain

Key:
Experiment in all cases: native MS
[1] = molecular target: T1, Methanocaldococcus jannaschii (Mja) RPP30 (Methanocaldococcus jannaschii, UniProt Q58539 1-232)
T1 sequence: B2 chain 2

[2] = molecular target: the molecule itself
[3] = molecular target: T2, Methanocaldococcus jannaschii (Mja) RPP21 (Methanocaldococcus jannaschii, UniProt Q58372 1-128)
T2 sequence: B4 chain 1

Binder	binding result [2]	other results
B1		binding result [1]: binds
B2	binds	
B3		binding result [3]: binds
B4	binds	

Source: article PMC9371926 (Nucleic Acids Research, 2022)
